Assay results published in the nanobody polyreactivity screen of Harvey et al. (2022).

Assay: yeast display, Sf9 membrane polyspecificity reagent, FACS + sequencing; frameworks hold sequencing errors
How it was run: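 In a synthetic yeast display library (Saccharomyces cerevisiae BJ5465), nanobody expression was induced with galactose for 36–48 hours. FACS gates were set low and high (top ~1%) using anti-HA fluorescence for expression and streptavidin fluorescence for binding of the Sf9 membrane reagent. Each polyreactivity label is drawn from the gate of origin.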

Sequence	polyreactivity (PSR sort gate)
QVQLVESGGGLVQAGGSLRLSCAASGSTFSFYAMGWYRQAPGKERELVAAIRFSGTSTYADSVKGRFTISRDNAKNTVYLQMNSLKPEDTAVYYCAARRAVFYSQRYYRYDYWGQGTQVTVSS	high polyreactivity
QVQLVESRGGLVQAGGSLRLSCAASGFIFTRYVMGWYRQAPGKERELVAGISTRGARTYYADSVKGRFTISRDNAKNTVYLQIHSLTPEDTAVYYCNKDWSRGWNYEYDYWGQGTQVTVSS	high polyreactivity
QVQLVETGGGLVQAGGSLRLSCAASGSTFRFYVMGWYRQAPGKERELVAAISTSGGSTYYADSVKGRFTISRDTAKNTVYLQMNSLKPEDTAVYYCAADLIASLRPYYQYDYWGQGTQVTVSS	low polyreactivity
QVQLVESGGCLVQAQGSLRLSCAASGFTFGYNAMGWYRQAPGKERELVAVISSRGGRTYYADSVKGRFTISRDNAKNTVYLQMYSLKPEDTAVYYCAKRSGSYSYPAVGGWGLGYCGQGTQVTVSS	high polyreactivity
QVQLVESGGGLVQAGGSLRLSCAASGSTFGHYAMGWYRQAPGKERELVAGITYTDNHELRRLCEGRFTISRDNAKNTVYLQMNSLKPEDTAVYYCNADDTYYPLGGITGYDYWGQGTQVTVSS	low polyreactivity
QVQLVESGGGLVQAGGSLRLSCAASGSTFTVNAMGLYRQAPGKERELVAAINWSGGSTYYADSVKGRFTISRDHAKNTVYLQMNSLKPEDTAVYYCNKDREPYGYWSFDYWGQGTQVTLSS	low polyreactivity
QVQLVESGGGLVQAGGSLRLSCAASGSIAMGWYRQAPGKERELVATISSSGGSTYYADSVKGRFTISRDNAKNTVYLQMNSLKPEDTAVYYCNTQAVYGGGEGGYDYWGQGTQLTVSS	low polyreactivity
QVQLVESGGGLVQAGGSLRLSCAASGFIIGSYTMGWYRQAHGKERELVASITKRGGSTYYADSVKGRFTISRDNAKNTVYLQMNSLKPEDTSVYYCAATYWFSHRSRYDYWGQGTQVTVSS	high polyreactivity
QVQLVESGGGLVQAGGSLRLSCAASGFTLTAYAMGWYRQARGKEREFVAAISTSGTRTYYADSVKGRFTISRDNAKNTVYLQMNSLKPEDTAVYYCGARYSGYQYWKFNYWGQGTQVTVSS	high polyreactivity
QVQLVESGGGLVQAGGSLRISCAASGRIFPVNAMGWYRQAPGKERELVARISWRGGTYYADSVKGRFTISRDNAKNTVYLQMNSLKPEDTAFYYCAATLASTSYWYHYGYWGQGTQVTVSS	high polyreactivity
QVQLVESGGGLVQAGGSLRLTCDASGSTFYIYAMGWYRQAPGKERELVARISGSCGSTYYADSVKGRFTISRDNAKNTVYLQMNSLKPEETAVYDCASDDIYKNYQYYAFPYYRYDYWGQGTQVTVSS	low polyreactivity
QVQLQESGGGMVQAGGSLRLSCAASGYISWADYMGWYRQAPGKERELVAGIGYGSTTYYADSVKGRFTISRDNAKNTAYLQMNSLKPEDTAVYYCAVGWYRVTAYKYWGQGTQVTVSS	low polyreactivity
QVQLVESGGGLVQAGGSRRLSCAASGFTFYWYAMGWYRQAPGKERELVAAITRGGRTYYADSVKGRFTISRDNAKNTVYLQMNSLKPEDTAVYYCNAVEFTIAWCYTMDYWGQGIQVTVSS	high polyreactivity
HVQLVESGGGLVQAGGSLRLTCAASGFSYGYYAMGWYRQAPGKEWELVATISSGDNTYYADSVKGRFTSSRDNAKNTVYLQMNSLKPEDTAVYYCAARYPHYFVRGGYWGQGTQVTVSS	high polyreactivity
QVQLVESGGGLVQAGGSLRLSCAASGLIFATTVLGWYRQAPGKERELVASITTSGSRTYYADSVKGRFTISRDNAKNTVYLQMNSLKPEDTAVYYCAAYPTYLTPSSPGYDYWGQGTQVTVSS	high polyreactivity
QVQLVESGGRLFQAGGSLRLSCAACGFTIPYYAMRWYRKAPGKERELVAAIDWTGGSTYYADSVKGRFTISRDKAKNTVYLQMNSRKPEETEVYYCAREVDYSISSPTPPVVELDYWGQGTQVTVSS	low polyreactivity
QVQLVESGAGIVQAGGSLRLSCAASGRIFSDYTMGWYRQAPGKERELVAAIDWSGGNTYYADSVKGRFTISRDNAKNTVYLQMNSLKPEDTAVYYCNADWTYPSAEREYWGQGTQVTVSS	low polyreactivity
QVQLVESGGGVVQAGGSLRLSCAASGRIFRYYAMGWYRQAPGKERELVAGITTGGGSTYYADSVKGRFTISRDNAKNTVYLQMNSLKPEDTAVYYCAARYYTTFYWGQGTQVTVSS	high polyreactivity
QVQLVESGGGLVQAGGSLRLSCAASGLTFSRYARGWYRQAPGKERELVAAISGSGGSTYYADSVKGRFTISRDNAKNTVYLQMNSLKPEDTAVYYCNKYRATNSARDYWGQGTQVTVSS	high polyreactivity
QVQLVESGGGLVQAGGSLRLSCAASGSIFGGYAMGWYRQAPGKERELVAAISSSGGSTYYADSVKGRFTISRDNAKNTVYLQMHSLKPEDTAVYYCASSYHGRSYHLNYWGQGTQVTVSS	high polyreactivity
QVQLVESGGGLVQAGGSLRLSCAASGFTFASYAMGWYRQAPGKERELVAAISGSGTSTYYADSVKGRFTISRDKAKNTVYLQMNSLKPEHTAVYYCAARRYGYRYDYWGQGTQVTVSS	high polyreactivity
QVQLVESGGGLVQAGGSLRLSCAASGRIFQRYAMGWYRPAPGKERELVAAISSRGGRTFYADSVKGRFTISRDNAMYSVYLQMNSLKPEDSAAYYCAATATVGSVTFDYWGQGTQVSVSS	high polyreactivity

Sequence	polyreactivity (PSR sort gate)
QVQLVESGGGLGQAAGSLRLSCAASGHIFGPYAMGWYSQAPGKERELVAAITSGGTTYYADSVKGRFTISRDNAKNTVYLQMNSLKPEDTAVYYCAAKFELTRYSSPFFWYDSWGQGTKVTVSS	high polyreactivity
QVQLVESGGGLVQAGGSLRLSCAASGSTFYKNAMGWYRQAPGKERELVARISGRGGSTYYADSVKCRFTISRDNAKNSVYLQMNSLKPEDTAVYYCNAVKYSSSAALYDYWGQGTQVTVSS	high polyreactivity
QVQLVESGGGLVQAGGSLRLSCAASGRISESNDMGWYRQAPGKERELVAAISSSGGSTYYADSVKGRFTISRDNAKNTVYLQMNSLKPVDTAVYYCNAVYYRTVLKIGVYEYDYWGQGTQVTVSS	low polyreactivity
QDQLVESGGGLVQAGGSLRLSCASSGSTFVRYAMGWYRQAPGKERELVATISKSGGSTSYADSVKGRFTISRDNAKNTVYLQMNSLKPEDTAVYYCAADFLYIWAIFDYWGQGTQVTVSS	low polyreactivity
QVQLVESGGGLLQAGGSLRLSCAASGITFYRNAMGWYRQAPGKERELVAAITWSGGSTYYADSVKGRFTISRDYAKNTVYLQMNSLKPEDSAVYYCNADYRHRYYWGQGTQVTVSS	high polyreactivity
QVQLVESGGGLVQAGGSLRLSCAASGFISRFNSMGWYRKAPGKERELVAAISWYGGITYYADSVKGRFTISRDNAKNTVYLQMNSLKPEDTAVYYCNAGDHIRKRYGISATWGYGYGYWGQGTQVTVSS	high polyreactivity
QVQLVESGGGLVQAGGSLRLSCAASGFIFSIYAMGWYRQAPGKERELVAAISGTGSTSYADSVKGRFTISRDNAKNTVYLQMNSLKPEDTAVYYCAKDGPGRLGDDYWGQGTQVTVSS	low polyreactivity
QVQLVESGGGLVQAGGSLRVSCAASGNTFYYTMGWYLQAPGKERELVATISYDGTSTYYADSVKGRFTISRDNAKNTVYLQKNSLKPEDTAVYYSSAYGTVVTLNDYWGQGTQVTVSS	low polyreactivity
QVQLVESGGGLVQAGGSLRLSCAASGGTFSFYTMGWYRQGPGKERELVAAIDSTGRTNYADSVKGRFTISRENAKNTVYLLMNSLKPDDTAVYYCSAGPPRADYDYWGQGTQVTVSS	low polyreactivity
QVQLVESGGGLVQAGGSLRLSCAASGSTNVVNAMGRYRQPPGKERELVAAITYSGGSTYYADSVKGRFTISRDNAKNTVYLQQNSLKPEDTAVYYCNTTLRDSRQYVDRAPYTRYDYWGQGTQVTVSS	low polyreactivity
QVQLVESGGGLVQAGGSLRLSCAASGSTFSPYAMGWYRQAPGKERELVANITISGGSTYYADSVKGRFTISRDNAKNTVYLQMNSLKPEDTAVYFCNADSLIRWLFTVVIFDYWGQGTQVTVSS	low polyreactivity
QVQLVESGGGLLQAGGSLRLSCAASVSIFDSYAMGWYREAPGKERELVAVISESGGTTYNADSVKGRFTISRDNAKNTVYLQMNSLKPEDTAVYYCAAVWYFQFGVWGYYWGQGTQVTVSS	low polyreactivity
QVQLVESGGGLVQAGGSLRLSCAASGNTFGENAMGWYRQAPWKERELVAAISNGGTTNYADSVKGRFTISRDNAKNTVYLQMNSLKPEDTAVYYSNAKFGISQPGHSGLLKMDYWGQGTQVTVSS	low polyreactivity
QVQLVESGGGLVQAGGSLRLSCAASGSIFARYAMGWYRQAPGKERELVAAITYSGGSTYYADSVKGRFTISRYNAKNTVYLQMNSLKPEDTAVYYCALRSGYGRWYPYDYWGQGTQVTVSS	high polyreactivity
QVQLVESGGGLVQAGGSLRLSCAASGFIFYLYTMGWYRQAPGKERELVAAITKSGTRTYYADSVKGRFTISRDNAKNTVYLQMNSLKPEDTAVYYCAAEWGSSYRWGMDYWGQGTQVTVSS	high polyreactivity
QVQLVESGGGLVQAGGSLRLSCAASGRTFYGYAKGWYIQAPGKERELVAAITRAGSTNYADSVKGRFTISRDNAKNTFYLQLNSLKPEDTAVYYCAAVRVHTDRYNYWGQGTQVTVSS	high polyreactivity
QVQLVESGGGLVQAGGSLRLSCAASGSTFINYAMGWYRQAPGKERELVAAISRSGGTTYYADSVKGRFTISRDNAKNTVYLQMNSLKPEDTAVYYCNATLGSYARTRYYYWGQGTQVTVSS	high polyreactivity
QVQLVESGGGVVQAGRSLRLSCAASGSTFWAYLMGWYRQAPGIERELVASISRGGSTNYTDSVKGRFTISRDNAKNTVYLQMNSLKPEDTEVYYCAKRPYPYKYDYWGQGRQVTVSS	high polyreactivity
QVQLVQSGVGLVQAGGSLRLSCAASGSIFSYYVMGWYRQAPGKERELVAAISWSGGSTYYADSVKGRFTISRDNAKNTVYLQMNSLKPEDTAVYYCAAGTYPYYWVQGTQVTVSS	low polyreactivity
QVQIVESGRGLVQAGGSLRLSCASSGFTFVSYAMGWYRQAPGKERELDASISKRGGTTYYADSVKGRFTISRDNAKNTVYLQMNSLKPEDTAVYYCYARDTRRYVTYDSGYDYWGQGTQVTVSS	high polyreactivity
QVQLVESGGGLVQAGGTLRLSCPASGRNILGYAMGWYRPAPGKERELVAALRRSGGHTFYADSVKGRFTISRDNAKNRVYFQMNSLKPEDTAVYYCAASTSGAIRRDGFWGQGTQVSVSS	low polyreactivity
